Legend:
Assay in all cases: biochemical
Type in all cases: biochemical
[1] = biological target: 266 human kinases (Homo sapiens, UniProt P17252); settings: PKCα(h); 100 μM
Summary of the method: (§1)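 Steps: kinase transfers radiolabelled phosphate from ATP onto a positively charged substrate; the substrate is trapped on a negatively charged filter; bound radioactivity is counted by scintillation and compared with uninhibited (100%) activity.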

[2] = biological target: 266 human kinases (Homo sapiens, UniProt P00533); settings: EGFR(h); 100 μM
Summary of the method: as §1

[3] = biological target: 266 human kinases (Homo sapiens, UniProt P43405); settings: Syk(h); 100 μM
Summary of the method: as §1

[4] = biological target: T1, 266 human kinases (Homo sapiens, UniProt P51956); settings: NEK3(h); 100 μM
T1 sequence (P51956 1-506): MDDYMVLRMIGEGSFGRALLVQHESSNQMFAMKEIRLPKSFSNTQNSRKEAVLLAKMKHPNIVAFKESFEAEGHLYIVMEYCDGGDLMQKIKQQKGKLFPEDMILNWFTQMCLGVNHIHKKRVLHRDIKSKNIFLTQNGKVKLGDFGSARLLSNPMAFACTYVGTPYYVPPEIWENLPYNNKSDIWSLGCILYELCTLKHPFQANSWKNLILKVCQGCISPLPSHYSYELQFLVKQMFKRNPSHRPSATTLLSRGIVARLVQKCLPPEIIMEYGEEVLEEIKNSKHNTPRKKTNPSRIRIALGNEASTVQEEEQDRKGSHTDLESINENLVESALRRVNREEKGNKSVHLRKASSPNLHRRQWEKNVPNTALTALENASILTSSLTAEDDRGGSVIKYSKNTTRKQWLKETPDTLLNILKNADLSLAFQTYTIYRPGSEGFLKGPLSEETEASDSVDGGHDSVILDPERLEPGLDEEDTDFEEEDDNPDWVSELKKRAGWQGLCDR
Summary of the method: as §1

[5] = biological target: 266 human kinases (Homo sapiens, UniProt P00519, T315I); settings: Abl(T315I)(h); 100 μM
Summary of the method: as §1

[6] = biological target: 266 human kinases (Homo sapiens, UniProt Q14680); settings: MELK(h); 100 μM
266 human kinases (Homo sapiens, UniProt Q14680), sequence (Q14680 whole entry): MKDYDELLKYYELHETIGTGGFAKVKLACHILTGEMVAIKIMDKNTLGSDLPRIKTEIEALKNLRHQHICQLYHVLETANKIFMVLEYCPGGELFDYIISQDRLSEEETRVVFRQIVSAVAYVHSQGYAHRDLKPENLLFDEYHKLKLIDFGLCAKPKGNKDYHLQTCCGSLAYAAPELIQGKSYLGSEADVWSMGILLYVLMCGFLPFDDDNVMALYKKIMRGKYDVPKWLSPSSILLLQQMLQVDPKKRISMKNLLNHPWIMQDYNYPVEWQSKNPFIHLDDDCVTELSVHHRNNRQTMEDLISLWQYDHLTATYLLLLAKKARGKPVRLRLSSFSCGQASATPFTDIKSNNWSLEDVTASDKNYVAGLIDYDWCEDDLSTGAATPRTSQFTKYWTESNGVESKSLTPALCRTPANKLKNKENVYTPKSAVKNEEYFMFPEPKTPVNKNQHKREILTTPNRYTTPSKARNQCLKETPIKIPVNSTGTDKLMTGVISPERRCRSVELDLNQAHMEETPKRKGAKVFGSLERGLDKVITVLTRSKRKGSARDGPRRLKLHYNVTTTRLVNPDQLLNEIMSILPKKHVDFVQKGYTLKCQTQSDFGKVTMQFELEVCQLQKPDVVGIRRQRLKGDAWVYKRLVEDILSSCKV
Summary of the method: as §1

[7] = biological target: 266 human kinases (Homo sapiens, UniProt Q86V86); settings: Pim-3(h); 100 μM
Summary of the method: as §1

[8] = biological target: 266 human kinases (Homo sapiens, UniProt Q9HC98); settings: NEK6(h); 100 μM
266 human kinases (Homo sapiens, UniProt Q9HC98), sequence (Q9HC98 whole entry): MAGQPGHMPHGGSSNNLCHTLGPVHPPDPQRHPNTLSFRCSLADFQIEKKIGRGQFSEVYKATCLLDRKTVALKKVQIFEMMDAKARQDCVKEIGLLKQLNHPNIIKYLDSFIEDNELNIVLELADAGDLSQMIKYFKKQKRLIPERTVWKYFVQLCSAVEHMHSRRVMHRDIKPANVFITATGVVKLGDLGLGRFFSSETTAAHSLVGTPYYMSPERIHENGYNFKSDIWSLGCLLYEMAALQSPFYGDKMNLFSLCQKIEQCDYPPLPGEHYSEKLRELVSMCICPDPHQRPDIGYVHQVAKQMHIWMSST
Summary of the method: as §1

[9] = tested on: 266 human kinases; settings: for % activity: 100 μM; for off-target kinase inhibition: at 100 μM
Summary of the method: as §1

[10] = biological target: 266 human kinases (Homo sapiens, UniProt O43293); settings: ZIPK(h); 100 μM
266 human kinases (Homo sapiens, UniProt O43293), sequence (O43293 whole entry): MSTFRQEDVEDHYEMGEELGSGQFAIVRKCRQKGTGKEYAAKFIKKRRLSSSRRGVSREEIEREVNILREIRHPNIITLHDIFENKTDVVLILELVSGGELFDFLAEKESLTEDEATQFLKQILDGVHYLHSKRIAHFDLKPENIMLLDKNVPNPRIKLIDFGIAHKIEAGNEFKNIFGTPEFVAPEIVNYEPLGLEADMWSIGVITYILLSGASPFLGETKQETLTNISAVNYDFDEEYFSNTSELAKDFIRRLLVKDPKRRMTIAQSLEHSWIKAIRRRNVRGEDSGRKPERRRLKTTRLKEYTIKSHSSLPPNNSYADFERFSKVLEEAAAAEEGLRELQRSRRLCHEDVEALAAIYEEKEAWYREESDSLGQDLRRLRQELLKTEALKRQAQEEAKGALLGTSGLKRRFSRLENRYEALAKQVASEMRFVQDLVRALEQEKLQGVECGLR
Summary of the method: as §1

[11] = biological target: 266 human kinases (Homo sapiens, UniProt Q13557); settings: CaMKIIδ(h); 100 μM
266 human kinases (Homo sapiens, UniProt Q13557), sequence (Q13557 whole entry): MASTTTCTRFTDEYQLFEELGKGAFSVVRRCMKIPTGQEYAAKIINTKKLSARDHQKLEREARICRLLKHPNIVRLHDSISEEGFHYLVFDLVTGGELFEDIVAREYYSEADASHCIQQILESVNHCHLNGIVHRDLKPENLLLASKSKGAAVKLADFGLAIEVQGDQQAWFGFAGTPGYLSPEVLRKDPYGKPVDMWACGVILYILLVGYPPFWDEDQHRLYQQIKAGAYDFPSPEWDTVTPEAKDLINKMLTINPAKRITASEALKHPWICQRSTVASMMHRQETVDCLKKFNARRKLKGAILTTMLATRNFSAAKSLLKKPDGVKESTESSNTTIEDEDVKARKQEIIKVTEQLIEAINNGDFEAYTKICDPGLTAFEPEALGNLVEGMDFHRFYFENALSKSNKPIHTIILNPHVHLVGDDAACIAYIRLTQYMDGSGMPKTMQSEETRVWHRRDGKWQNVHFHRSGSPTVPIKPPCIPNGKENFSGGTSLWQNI
Summary of the method: as §1

[12] = biological target: 266 human kinases (Homo sapiens, UniProt P00533, L858R/T790M); settings: EGFR(T790M,L858R)(h); 100 μM
Summary of the method: as §1

[13] = biological target: 266 human kinases (Homo sapiens, UniProt P30530); settings: Axl(h); 100 μM
Summary of the method: as §1

[14] = biological target: 266 human kinases (Homo sapiens, UniProt O96013); settings: PAK4(h); 100 μM
266 human kinases (Homo sapiens, UniProt O96013), sequence (O96013 whole entry): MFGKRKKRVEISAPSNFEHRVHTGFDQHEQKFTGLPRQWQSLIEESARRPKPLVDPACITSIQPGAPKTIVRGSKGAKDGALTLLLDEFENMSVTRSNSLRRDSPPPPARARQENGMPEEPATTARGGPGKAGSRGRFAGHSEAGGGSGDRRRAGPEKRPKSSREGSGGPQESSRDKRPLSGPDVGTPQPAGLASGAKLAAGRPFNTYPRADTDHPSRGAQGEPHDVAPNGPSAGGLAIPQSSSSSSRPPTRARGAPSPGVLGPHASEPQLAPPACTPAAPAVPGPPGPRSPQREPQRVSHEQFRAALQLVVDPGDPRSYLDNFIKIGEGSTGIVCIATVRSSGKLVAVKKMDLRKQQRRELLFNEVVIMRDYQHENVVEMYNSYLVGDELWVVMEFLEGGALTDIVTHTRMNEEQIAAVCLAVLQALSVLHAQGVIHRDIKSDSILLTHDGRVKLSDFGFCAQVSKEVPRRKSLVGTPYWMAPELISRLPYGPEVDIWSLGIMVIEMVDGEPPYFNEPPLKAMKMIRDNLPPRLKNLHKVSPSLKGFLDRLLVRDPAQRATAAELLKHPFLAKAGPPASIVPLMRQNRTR
Summary of the method: as §1

[15] = biological target: T2, 266 human kinases (Homo sapiens, UniProt P43403); settings: ZAP-70(h); 100 μM
T2 sequence (P43403 1-619): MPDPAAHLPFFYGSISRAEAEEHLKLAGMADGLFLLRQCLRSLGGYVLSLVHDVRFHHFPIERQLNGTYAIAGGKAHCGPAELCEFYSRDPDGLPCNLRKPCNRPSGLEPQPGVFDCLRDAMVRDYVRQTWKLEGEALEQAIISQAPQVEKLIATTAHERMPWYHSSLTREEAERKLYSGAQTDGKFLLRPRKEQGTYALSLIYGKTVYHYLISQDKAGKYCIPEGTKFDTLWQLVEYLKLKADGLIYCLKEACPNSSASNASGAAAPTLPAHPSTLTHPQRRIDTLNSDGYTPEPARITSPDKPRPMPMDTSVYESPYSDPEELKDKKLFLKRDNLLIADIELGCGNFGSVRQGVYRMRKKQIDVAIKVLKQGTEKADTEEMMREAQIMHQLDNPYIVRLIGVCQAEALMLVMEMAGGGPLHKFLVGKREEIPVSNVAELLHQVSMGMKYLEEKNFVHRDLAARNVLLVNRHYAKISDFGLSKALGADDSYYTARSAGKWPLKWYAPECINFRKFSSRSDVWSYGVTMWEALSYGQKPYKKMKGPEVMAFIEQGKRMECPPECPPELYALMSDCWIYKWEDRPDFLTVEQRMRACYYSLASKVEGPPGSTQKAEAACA
Summary of the method: as §1

[16] = biological target: 266 human kinases (Homo sapiens, UniProt P08581, M1250T); settings: Met(M1268T)(h); 100 μM
Summary of the method: as §1

[17] = biological target: 266 human kinases (Homo sapiens, UniProt P54756); settings: EphA5(h); 100 μM
266 human kinases (Homo sapiens, UniProt P54756), sequence (P54756 25-1037): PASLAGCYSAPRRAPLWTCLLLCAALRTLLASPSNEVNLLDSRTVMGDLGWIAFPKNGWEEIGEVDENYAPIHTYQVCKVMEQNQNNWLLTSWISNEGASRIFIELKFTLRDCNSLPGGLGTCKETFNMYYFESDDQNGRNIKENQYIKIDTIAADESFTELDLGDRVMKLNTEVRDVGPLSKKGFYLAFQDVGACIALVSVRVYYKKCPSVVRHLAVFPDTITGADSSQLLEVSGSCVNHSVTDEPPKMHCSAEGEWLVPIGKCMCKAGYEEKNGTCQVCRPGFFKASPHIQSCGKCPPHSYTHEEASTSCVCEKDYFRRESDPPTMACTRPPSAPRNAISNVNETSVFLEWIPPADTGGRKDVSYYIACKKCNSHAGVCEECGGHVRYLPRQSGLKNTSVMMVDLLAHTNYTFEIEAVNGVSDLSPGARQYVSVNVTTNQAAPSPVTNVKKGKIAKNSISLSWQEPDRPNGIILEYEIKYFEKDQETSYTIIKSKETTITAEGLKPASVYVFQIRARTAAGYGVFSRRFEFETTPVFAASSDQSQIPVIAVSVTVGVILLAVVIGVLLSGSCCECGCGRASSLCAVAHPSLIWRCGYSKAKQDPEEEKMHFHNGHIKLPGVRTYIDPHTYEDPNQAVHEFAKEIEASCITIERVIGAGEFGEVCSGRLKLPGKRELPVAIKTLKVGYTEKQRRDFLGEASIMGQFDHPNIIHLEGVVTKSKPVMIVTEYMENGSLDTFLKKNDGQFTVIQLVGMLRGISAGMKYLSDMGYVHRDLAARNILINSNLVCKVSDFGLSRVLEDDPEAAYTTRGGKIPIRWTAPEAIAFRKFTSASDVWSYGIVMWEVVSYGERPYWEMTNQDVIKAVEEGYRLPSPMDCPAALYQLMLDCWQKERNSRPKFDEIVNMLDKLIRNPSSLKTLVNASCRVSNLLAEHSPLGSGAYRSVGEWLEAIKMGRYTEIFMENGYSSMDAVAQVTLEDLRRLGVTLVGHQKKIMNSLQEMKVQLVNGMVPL
Summary of the method: as §1

[18] = biological target: 266 human kinases (Homo sapiens, UniProt Q9P1W9); settings: Pim-2(h); 100 μM
266 human kinases (Homo sapiens, UniProt Q9P1W9), sequence (Q9P1W9 whole entry): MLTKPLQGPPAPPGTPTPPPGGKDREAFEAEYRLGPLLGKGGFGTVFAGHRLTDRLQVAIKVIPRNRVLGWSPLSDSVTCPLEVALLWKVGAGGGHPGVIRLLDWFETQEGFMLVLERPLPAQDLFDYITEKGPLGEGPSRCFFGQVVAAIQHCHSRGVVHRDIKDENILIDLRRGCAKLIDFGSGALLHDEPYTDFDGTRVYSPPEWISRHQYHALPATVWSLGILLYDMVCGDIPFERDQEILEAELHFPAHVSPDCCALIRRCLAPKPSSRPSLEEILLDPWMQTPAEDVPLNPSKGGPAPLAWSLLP
Summary of the method: as §1

HRRIKAWLKKIKALARQLGVAA (mammal) [MMI-0500]
% activity [1]: 3% | % activity [2]: −1% | % activity [3]: 5% | % activity [4]: 20% | % activity [5]: 16% | % activity [6]: 0% | % activity [7]: 37% | % activity [8]: 49% | % activity ([9]; PKCβII(h)): 3% | % activity ([9]; PKG1β(h)): 24% | off-target kinase inhibition [9]: very limited off-target kinase inhibition | % activity [10]: 1% | % activity [11]: 1% | % activity [12]: 53% | % activity [13]: 12% | % activity [14]: 86% | % activity [15]: 1% | % activity [16]: 239% | % activity [17]: 42% | % activity [18]: 46%

YARAAARQARAKALNRQLGVA (mammal) [MMI-0200]
% activity [1]: 100% | % activity [2]: 83% | % activity [3]: 36% | % activity [4]: 100% | % activity [5]: 108% | % activity [6]: 59% | % activity [7]: 94% | % activity [8]: 98% | % activity ([9]; MAPK1(h)): 97% | % activity ([9]; PKCβII(h)): 100% | % activity ([9]; PKG1β(h)): 57% | off-target kinase inhibition [9]: very limited off-target kinase inhibition | % activity [10]: 67% | % activity [11]: 2% | % activity [12]: 108% | % activity [13]: 99% | % activity [14]: 98% | % activity [15]: 58% | % activity [16]: 143% | % activity [17]: 123% | % activity [18]: 74%

Reference: patent publication US20140072613A1, “Compositions and Methods for Treating Cutaneous Scarring” (priority 2012, published 2014)
